# In US20240049668A1 (VILMORIN AND CIE, published 2024):
# T1: Movement Protein of ToBRFV (Tomato Brown Rugose Fruit Virus …, UniProt A0A0S2SZW1 1-266)
# T1 sequence: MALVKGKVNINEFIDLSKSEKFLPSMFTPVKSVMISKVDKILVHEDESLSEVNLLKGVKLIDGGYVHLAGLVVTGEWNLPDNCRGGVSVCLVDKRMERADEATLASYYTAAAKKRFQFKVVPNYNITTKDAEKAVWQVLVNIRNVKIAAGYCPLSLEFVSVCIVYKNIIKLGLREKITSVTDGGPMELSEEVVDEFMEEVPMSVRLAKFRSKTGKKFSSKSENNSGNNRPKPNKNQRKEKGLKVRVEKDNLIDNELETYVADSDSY
# Target: T1, Movement Protein of ToBRFV
# Assay: cell-based or functional assay
row,Binder,HR to MP Rugose [HR scale 0-4]
1,TM-2-2 variant L11_10 (767 I) (receptor) MAEILLTSVINKSVEIAGNLLIQEGKRLYWLKEDIDWLQREMRHIRSYVDNAKAKEAGGDSRVKNLLKDIQELAGDVEDLLDDFLPKIQQSNKFNYCLKRSSFADEFAMEIEKIKRRVVDIDRIRKTYNIIDTDNNNDDCVLLDRRRLFLHADETEIIGLDDDFNMLQAKLLNQDLHYGVVSIVGMPGLGKTTLAKKLYRLIRDQFECSGLVYVSQQPRASEILLDIAKQIGLTEQKMKENLEDNLRSLLKIKRYVILLDDIWDVEIWDDLKLVLPECDSKVGSRMIITSRNSNVGRYIGGESSLHALQPLESEKSFELFTKKIFNFDDNNSWANASPDLVNIGRNIVGRCGGIPLAIVVTAGMLRARERTEHAWNRVLESMGHKVQDGCAKVLALSYNDLPIASRPCFLYFGLYPEDHEIRAFDLINMWIAEKFIVVNSGNRREAEDLAEDVLNDLVSRNLIQLAKRTYNGRISSCRIHDLLHSLCVDLAKESNFFHTAHDAFGDPGNVARLRRITFYSDNVMIEFFRSNPKLEKLRVLFCFAKDPSIFSHMAYFDFKLLHTLVVVMSQSFQAYVTIPSKFGNMTCLRYLRLEGNICGKLPNSIVKLTRLETIDIDRRSLIQPPSGVWESKHLRHLCYRDYGQACNSCFSISSFYPNIYSLHPNNLQTLMWIPDKFFEPRLLHRLINLRKLGILGVSNSTVKMLSIFSPVLKALEVLKLSFSSDPSEQIKLSSYPHIAKLHLNVNRTMALNSQSFPPNLIKLTLAIFSVDRYILAVLKTFPKLRKLKMFICKYNEEKMDLSGEANGYSFPQLEVLHIHSPNGLSEVTCTDDVSMPKLKKLLLTGFHCRISLSERLKKLSK,0
2,TM-2-2 variant L11_11 (767 C) (receptor) MAEILLTSVINKSVEIAGNLLIQEGKRLYWLKEDIDWLQREMRHIRSYVDNAKAKEAGGDSRVKNLLKDIQELAGDVEDLLDDFLPKIQQSNKFNYCLKRSSFADEFAMEIEKIKRRVVDIDRIRKTYNIIDTDNNNDDCVLLDRRRLFLHADETEIIGLDDDFNMLQAKLLNQDLHYGVVSIVGMPGLGKTTLAKKLYRLIRDQFECSGLVYVSQQPRASEILLDIAKQIGLTEQKMKENLEDNLRSLLKIKRYVILLDDIWDVEIWDDLKLVLPECDSKVGSRMIITSRNSNVGRYIGGESSLHALQPLESEKSFELFTKKIFNFDDNNSWANASPDLVNIGRNIVGRCGGIPLAIVVTAGMLRARERTEHAWNRVLESMGHKVQDGCAKVLALSYNDLPIASRPCFLYFGLYPEDHEIRAFDLINMWIAEKFIVVNSGNRREAEDLAEDVLNDLVSRNLIQLAKRTYNGRISSCRIHDLLHSLCVDLAKESNFFHTAHDAFGDPGNVARLRRITFYSDNVMIEFFRSNPKLEKLRVLFCFAKDPSIFSHMAYFDFKLLHTLVVVMSQSFQAYVTIPSKFGNMTCLRYLRLEGNICGKLPNSIVKLTRLETIDIDRRSLIQPPSGVWESKHLRHLCYRDYGQACNSCFSISSFYPNIYSLHPNNLQTLMWIPDKFFEPRLLHRLINLRKLGILGVSNSTVKMLSIFSPVLKALEVLKLSFSSDPSEQIKLSSYPHIAKLHLNVNRTMALNSQSFPPNLIKLTLACFSVDRYILAVLKTFPKLRKLKMFICKYNEEKMDLSGEANGYSFPQLEVLHIHSPNGLSEVTCTDDVSMPKLKKLLLTGFHCRISLSERLKKLSK,0
3,TM-2-2 variant L11_16 (767 G) (receptor) MAEILLTSVINKSVEIAGNLLIQEGKRLYWLKEDIDWLQREMRHIRSYVDNAKAKEAGGDSRVKNLLKDIQELAGDVEDLLDDFLPKIQQSNKFNYCLKRSSFADEFAMEIEKIKRRVVDIDRIRKTYNIIDTDNNNDDCVLLDRRRLFLHADETEIIGLDDDFNMLQAKLLNQDLHYGVVSIVGMPGLGKTTLAKKLYRLIRDQFECSGLVYVSQQPRASEILLDIAKQIGLTEQKMKENLEDNLRSLLKIKRYVILLDDIWDVEIWDDLKLVLPECDSKVGSRMIITSRNSNVGRYIGGESSLHALQPLESEKSFELFTKKIFNFDDNNSWANASPDLVNIGRNIVGRCGGIPLAIVVTAGMLRARERTEHAWNRVLESMGHKVQDGCAKVLALSYNDLPIASRPCFLYFGLYPEDHEIRAFDLINMWIAEKFIVVNSGNRREAEDLAEDVLNDLVSRNLIQLAKRTYNGRISSCRIHDLLHSLCVDLAKESNFFHTAHDAFGDPGNVARLRRITFYSDNVMIEFFRSNPKLEKLRVLFCFAKDPSIFSHMAYFDFKLLHTLVVVMSQSFQAYVTIPSKFGNMTCLRYLRLEGNICGKLPNSIVKLTRLETIDIDRRSLIQPPSGVWESKHLRHLCYRDYGQACNSCFSISSFYPNIYSLHPNNLQTLMWIPDKFFEPRLLHRLINLRKLGILGVSNSTVKMLSIFSPVLKALEVLKLSFSSDPSEQIKLSSYPHIAKLHLNVNRTMALNSQSFPPNLIKLTLAGFSVDRYILAVLKTFPKLRKLKMFICKYNEEKMDLSGEANGYSFPQLEVLHIHSPNGLSEVTCTDDVSMPKLKKLLLTGFHCRISLSERLKKLSK,0
4,TM-2-2 variant L11_19 (767 N) (receptor) MAEILLTSVINKSVEIAGNLLIQEGKRLYWLKEDIDWLQREMRHIRSYVDNAKAKEAGGDSRVKNLLKDIQELAGDVEDLLDDFLPKIQQSNKFNYCLKRSSFADEFAMEIEKIKRRVVDIDRIRKTYNIIDTDNNNDDCVLLDRRRLFLHADETEIIGLDDDFNMLQAKLLNQDLHYGVVSIVGMPGLGKTTLAKKLYRLIRDQFECSGLVYVSQQPRASEILLDIAKQIGLTEQKMKENLEDNLRSLLKIKRYVILLDDIWDVEIWDDLKLVLPECDSKVGSRMIITSRNSNVGRYIGGESSLHALQPLESEKSFELFTKKIFNFDDNNSWANASPDLVNIGRNIVGRCGGIPLAIVVTAGMLRARERTEHAWNRVLESMGHKVQDGCAKVLALSYNDLPIASRPCFLYFGLYPEDHEIRAFDLINMWIAEKFIVVNSGNRREAEDLAEDVLNDLVSRNLIQLAKRTYNGRISSCRIHDLLHSLCVDLAKESNFFHTAHDAFGDPGNVARLRRITFYSDNVMIEFFRSNPKLEKLRVLFCFAKDPSIFSHMAYFDFKLLHTLVVVMSQSFQAYVTIPSKFGNMTCLRYLRLEGNICGKLPNSIVKLTRLETIDIDRRSLIQPPSGVWESKHLRHLCYRDYGQACNSCFSISSFYPNIYSLHPNNLQTLMWIPDKFFEPRLLHRLINLRKLGILGVSNSTVKMLSIFSPVLKALEVLKLSFSSDPSEQIKLSSYPHIAKLHLNVNRTMALNSQSFPPNLIKLTLANFSVDRYILAVLKTFPKLRKLKMFICKYNEEKMDLSGEANGYSFPQLEVLHIHSPNGLSEVTCTDDVSMPKLKKLLLTGFHCRISLSERLKKLSK,0
5,TM-2-2 variant L11_15 (767 L) (receptor) MAEILLTSVINKSVEIAGNLLIQEGKRLYWLKEDIDWLQREMRHIRSYVDNAKAKEAGGDSRVKNLLKDIQELAGDVEDLLDDFLPKIQQSNKFNYCLKRSSFADEFAMEIEKIKRRVVDIDRIRKTYNIIDTDNNNDDCVLLDRRRLFLHADETEIIGLDDDFNMLQAKLLNQDLHYGVVSIVGMPGLGKTTLAKKLYRLIRDQFECSGLVYVSQQPRASEILLDIAKQIGLTEQKMKENLEDNLRSLLKIKRYVILLDDIWDVEIWDDLKLVLPECDSKVGSRMIITSRNSNVGRYIGGESSLHALQPLESEKSFELFTKKIFNFDDNNSWANASPDLVNIGRNIVGRCGGIPLAIVVTAGMLRARERTEHAWNRVLESMGHKVQDGCAKVLALSYNDLPIASRPCFLYFGLYPEDHEIRAFDLINMWIAEKFIVVNSGNRREAEDLAEDVLNDLVSRNLIQLAKRTYNGRISSCRIHDLLHSLCVDLAKESNFFHTAHDAFGDPGNVARLRRITFYSDNVMIEFFRSNPKLEKLRVLFCFAKDPSIFSHMAYFDFKLLHTLVVVMSQSFQAYVTIPSKFGNMTCLRYLRLEGNICGKLPNSIVKLTRLETIDIDRRSLIQPPSGVWESKHLRHLCYRDYGQACNSCFSISSFYPNIYSLHPNNLQTLMWIPDKFFEPRLLHRLINLRKLGILGVSNSTVKMLSIFSPVLKALEVLKLSFSSDPSEQIKLSSYPHIAKLHLNVNRTMALNSQSFPPNLIKLTLALFSVDRYILAVLKTFPKLRKLKMFICKYNEEKMDLSGEANGYSFPQLEVLHIHSPNGLSEVTCTDDVSMPKLKKLLLTGFHCRISLSERLKKLSK,0
